{
  "source": "patent US20240100176A1",
  "about": "(Eli Lilly, published 2024)",
  "assay_in_all_cases": "capture ELISA: Ab1 on anti-human IgG Fc, His-tagged receptor at 1 µg/mL, anti-His HRP",
  "key": {"[1]": {"target": "T1, hexahistidine tagged human IL-4Rα ECD K2D (human, UniProt P24394 26-232)", "T1 construct": "not shown: hexahistidine tag", "T1 sequence (P24394 other isoform, or with tags, fused parts or gaps)": "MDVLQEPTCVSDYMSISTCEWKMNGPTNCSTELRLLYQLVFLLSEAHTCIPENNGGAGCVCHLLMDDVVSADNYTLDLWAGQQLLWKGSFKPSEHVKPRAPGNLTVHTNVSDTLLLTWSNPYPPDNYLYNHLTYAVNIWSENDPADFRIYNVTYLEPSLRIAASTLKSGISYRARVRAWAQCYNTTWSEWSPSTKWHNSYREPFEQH", "excerpt": "(§1) Example 2d. […] Briefly, thirty surface amino acid residue substitutions were introduced individually into hexahistidine tagged human IL-4Rα extra cellular domain (ECD) as follows: K2D, E6R, K22D, P26R, T31R, F41A, L42G, L43G, E45R, E52R, G56R, D66R, A71R, Q82G, K87D, E94R, H107A, D108R, P124R, D125R, D143R, R148D, L155R, R160D, S164R, S168R, Q181R, P192R, K195D, or H197G. Each mutant protein having a single amino acid residue substitution as described above was transiently expressed in CHO cells and purified using standard immobilized metal affinity chromatography techniques. […] The plates were then washed 3 times with PBST and the exemplified human IL-4Rα antibody was added to the wells at a final concentration of 1 μg/mL in PBS-casein and incubated for 1 hour at room temperature. The plates were washed 3 times with PBST, the IL-4Rα mutant proteins were serially diluted 5-fold from 1 μg/mL for 3 points. in PBS-casein and added to the plate at 50 μL/well and incubated for 1 hour at room temperature. The plates were washed 3 times with PBST and a 1000-fold dilution of anti-histidine tag antibody HRP conjugate (R&D Systems, Cat. #MAB050H) in PBS-casein was added and incubated for 45 minutes at room temperature. The plates were washed 3 times, TMB substrate (Pierce, Cat. #34028) was added per manufacturer instructions, the reaction was quenched with H₂SO₄, and absorbance was read at 450 nm on an ELISA plate reader."}, "[2]": {"target": "T2, hexahistidine tagged human IL-4Rα ECD P26R (human, UniProt P24394 26-232)", "T2 construct": "not shown: hexahistidine tag", "excerpt": "as §1"}, "[3]": {"target": "T3, hexahistidine tagged human IL-4Rα ECD L42G (human, UniProt P24394 26-232)", "T3 construct": "not shown: hexahistidine tag", "T3 sequence (P24394 26-232 L67G)": "as the sequence (P24394 other isoform, or with tags, fused parts or gaps) above, with D2K, L42G counted along it", "excerpt": "as §1"}, "[4]": {"target": "T4, hexahistidine tagged human IL-4Rα ECD L43G (human, UniProt P24394 26-232)", "T4 construct": "not shown: hexahistidine tag", "T4 sequence (P24394 26-232 L68G)": "as the sequence (P24394 other isoform, or with tags, fused parts or gaps) above, with D2K, L43G counted along it", "excerpt": "as §1"}, "[5]": {"target": "T5, hexahistidine tagged human IL-4Rα ECD E45R (human, UniProt P24394 26-232)", "T5 construct": "not shown: hexahistidine tag", "T5 sequence (P24394 26-232 E70R)": "as the sequence (P24394 other isoform, or with tags, fused parts or gaps) above, with D2K, E45R counted along it", "excerpt": "as §1"}, "[6]": {"target": "T6, hexahistidine tagged human IL-4Rα ECD E52R (human, UniProt P24394 26-232)", "T6 construct": "not shown: hexahistidine tag", "T6 sequence (P24394 26-232 E77R)": "as the sequence (P24394 other isoform, or with tags, fused parts or gaps) above, with D2K, E52R counted along it", "excerpt": "as §1"}, "[7]": {"target": "T7, hexahistidine tagged human IL-4Rα ECD G56R (human, UniProt P24394 26-232)", "T7 construct": "not shown: hexahistidine tag", "excerpt": "as §1"}, "[8]": {"target": "T8, hexahistidine tagged human IL-4Rα ECD A71R (human, UniProt P24394 26-232)", "T8 construct": "not shown: hexahistidine tag", "T8 sequence (P24394 26-232 A96R)": "as the sequence (P24394 other isoform, or with tags, fused parts or gaps) above, with D2K, A71R counted along it", "excerpt": "as §1"}, "[9]": {"target": "T9, hexahistidine tagged human IL-4Rα ECD Q82G (human, UniProt P24394 26-232)", "T9 construct": "not shown: hexahistidine tag", "T9 sequence (P24394 26-232 Q107G)": "as the sequence (P24394 other isoform, or with tags, fused parts or gaps) above, with D2K, Q82G counted along it", "excerpt": "as §1"}, "[10]": {"target": "T10, hexahistidine tagged human IL-4Rα ECD K87D (human, UniProt P24394 26-232)", "T10 construct": "not shown: hexahistidine tag", "excerpt": "as §1"}, "[11]": {"target": "T11, hexahistidine tagged human IL-4Rα ECD E94R (human, UniProt P24394 26-232)", "T11 construct": "not shown: hexahistidine tag", "T11 sequence (P24394 26-232 E119R)": "as the sequence (P24394 other isoform, or with tags, fused parts or gaps) above, with D2K, E94R counted along it", "excerpt": "as §1"}, "[12]": {"target": "T12, hexahistidine tagged human IL-4Rα ECD H107A (human, UniProt P24394 26-232)", "T12 construct": "not shown: hexahistidine tag", "T12 sequence (P24394 26-232 H132A)": "as the sequence (P24394 other isoform, or with tags, fused parts or gaps) above, with D2K, H107A counted along it", "excerpt": "as §1"}, "[13]": {"target": "T13, hexahistidine tagged human IL-4Rα ECD T108R (human, UniProt P24394 26-232)", "T13 construct": "also called D108R; not shown: hexahistidine tag", "excerpt": "as §1"}, "[14]": {"target": "T14, hexahistidine tagged human IL-4Rα ECD D125R (human, UniProt P24394 26-232)", "T14 construct": "not shown: hexahistidine tag", "T14 sequence (P24394 26-232 D150R)": "as the sequence (P24394 other isoform, or with tags, fused parts or gaps) above, with D2K, D125R counted along it", "excerpt": "as §1"}, "[15]": {"target": "T15, hexahistidine tagged human IL-4Rα ECD R160D (human, UniProt P24394 26-232)", "T15 construct": "not shown: hexahistidine tag", "T15 sequence (P24394 26-232 R185D)": "as the sequence (P24394 other isoform, or with tags, fused parts or gaps) above, with D2K, R160D counted along it", "excerpt": "as §1"}, "[16]": {"target": "T16, hexahistidine tagged human IL-4Rα ECD S168R (human, UniProt P24394 26-232)", "T16 construct": "not shown: hexahistidine tag", "excerpt": "as §1"}, "[17]": {"target": "T17, hexahistidine tagged human IL-4Rα ECD P192R (human, UniProt P24394 26-232)", "T17 construct": "not shown: hexahistidine tag", "excerpt": "as §1"}, "[18]": {"target": "T18, hexahistidine tagged human IL-4Rα ECD H197G (human, UniProt P24394 26-232)", "T18 construct": "not shown: hexahistidine tag", "excerpt": "as §1"}},
  "data": [
    {"binder": "anti-human IL-4Rα antibody Ab1 (antibody, human IgG4 S228P, kappa, human kappa light chain; also called anti-human IL-4Rα Ab1; unconjugated Ab1) heavy: QVQLVESGGGLVQPGGSLRLSCVASGFTFSHSSMNWVRQAPGKGLEWVSYISRATGAVYYADSVKGRFTISRDNAKNSLYLQMNSLRDEDTAVYYCAREPVFDYWGQGTLVTVSSASTKGPCVFPLAPCSRSTSESTAALGCLVKDYFPEPVTVSWNSGALTSGVHTFPAVLQSSGLYSLSSVVTVPSSSLGTKTYTCNVDHKPSNTKVDKRVESKYGPPCPPCPAPEFLGGPSVFLFPPKPKDTLMISRTPEVTCVVVDVSQEDPEVKFNWYVDGVEVHNAKTKPREEQFNSTYRVVSVLTVLHQDWLNGKEYKCKVSNKGLPSSIEKTISKAKGQPREPQVYTLPPSREEMTKNQVSLTCLVKGFYPSDICVEWESNGQPENNYKTTPPVLDSDGSFFLYSRLTVDKSRWQQGNVFSCSVMHEALHNHYTQKSLSLSLG light: DIQMTQSPSAMSASVGDRVTITCRASQDISNYLAWFQQKPGKVPTRLIYAASSLQSGVPSRFSGSGSGTEFTLTISSLQPEDFATYYCLQWSSYPRTFGQGTKVEIKRTVAAPSVFIFPPSDEQLKSGTASVVCLLNNFYPREAKVQWKVDNALQSGNSQESVTEQDSKDSTYSLSSTLTLSKADYEKHKVYACEVTHQGLSSPVTKSFNRGEC", "values": [
      {"measurement": "ELISA (OD450)", "setting": "[1]", "result": 2.05, "unit": "OD450"},
      {"measurement": "ELISA (OD450)", "setting": "[2]", "result": 1.66, "unit": "OD450"},
      {"measurement": "ELISA (OD450)", "setting": "[3]", "result": 1.71, "unit": "OD450"},
      {"measurement": "ELISA (OD450)", "setting": "[4]", "result": 1.7, "unit": "OD450"},
      {"measurement": "ELISA (OD450)", "setting": "[5]", "result": 1.7, "unit": "OD450"},
      {"measurement": "ELISA (OD450)", "setting": "[6]", "result": 1.73, "unit": "OD450"},
      {"measurement": "ELISA (OD450)", "setting": "[7]", "result": 1.73, "unit": "OD450"},
      {"measurement": "ELISA (OD450)", "setting": "[8]", "result": 1.7, "unit": "OD450"},
      {"measurement": "ELISA (OD450)", "setting": "[9]", "result": 1.74, "unit": "OD450"},
      {"measurement": "ELISA (OD450)", "setting": "[10]", "result": 1.75, "unit": "OD450"},
      {"measurement": "ELISA (OD450)", "setting": "[11]", "result": 1.73, "unit": "OD450"},
      {"measurement": "ELISA (OD450)", "setting": "[12]", "result": 1.89, "unit": "OD450"},
      {"measurement": "ELISA (OD450)", "setting": "[13]", "result": 1.88, "unit": "OD450"},
      {"measurement": "ELISA (OD450)", "setting": "[14]", "result": 1.79, "unit": "OD450"},
      {"measurement": "ELISA (OD450)", "setting": "[15]", "result": 1.91, "unit": "OD450"},
      {"measurement": "ELISA (OD450)", "setting": "[16]", "result": 1.88, "unit": "OD450"},
      {"measurement": "ELISA (OD450)", "setting": "[17]", "result": 1.94, "unit": "OD450"},
      {"measurement": "ELISA (OD450)", "setting": "[18]", "result": 1.85, "unit": "OD450"}
    ]}
  ]
}
